From patent US20230265151A1, “GIP/GLP1 CO-AGONIST COMPOUNDS” (priority 2020, published 2023)
Positions count from the first letter of the chain named.

Key:
human glucagon receptor [1] = biological target: human glucagon receptor (human, UniProt P47871 26-477); experiment: cell-based or functional assay
human GIP receptor = biological target: T1, human GIP receptor (human, UniProt P48546 22-466); experiment: SPA competition vs [125I]-GIP, hGIPR membranes
T1 construct: whole, on cells; also called hGIPR; human glucose-dependent insulinotropic polypeptide receptor
T1 sequence (looked up): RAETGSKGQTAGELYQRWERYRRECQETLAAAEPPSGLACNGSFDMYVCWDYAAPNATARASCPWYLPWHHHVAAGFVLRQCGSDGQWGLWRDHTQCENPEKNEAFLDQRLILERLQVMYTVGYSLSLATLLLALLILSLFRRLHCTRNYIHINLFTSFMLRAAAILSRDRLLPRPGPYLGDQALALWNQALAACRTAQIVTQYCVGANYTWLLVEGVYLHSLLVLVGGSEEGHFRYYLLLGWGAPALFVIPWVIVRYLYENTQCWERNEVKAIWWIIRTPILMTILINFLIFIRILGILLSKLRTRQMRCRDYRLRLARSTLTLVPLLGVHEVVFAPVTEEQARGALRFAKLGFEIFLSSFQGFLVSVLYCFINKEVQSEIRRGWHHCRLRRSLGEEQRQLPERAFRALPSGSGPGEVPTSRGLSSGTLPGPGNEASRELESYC
Method: (§1) The binding buffer contains 25 mM HEPES, pH 7.4, 2.5 mM CaCl₂, 1 mM MgCl₂, 0.1% (w/v) bacitracin, 0.003% (w/v) TWEEN®-20, and Roche Complete™ Protease Inhibitors without EDTA. […] Plates are sealed and mixed on a plate shaker (setting 6) for 1 minute and read with a PerkinElmer Trilux MicroBeta® scintillation counter after 2.5 to 12 hours of incubation/settling time at room temperature.
(§2) Data are analyzed using four-parameter (curve maximum, curve minimum, IC₅₀, Hill slope) nonlinear regression routines (Genedata Screener, version 12.0.4, Genedata AG, Basal, Switzerland). […] Values for Kᵢ are reported as the geometric mean, with error expressed as the standard error of the mean (SEM) and n is equal to the number of independent replicates (determined in assays performed on different days). Geometric Means are calculated as follows: […]

human glucagon receptor [2] = biological target: T2, human glucagon receptor (human, UniProt P47871 26-477); experiment: SPA competition vs [125I]-Gcg, hGcgR membranes
T2 construct: whole, on cells; also called hGCGR; hGcgR
Method: as §1, with “4-(2-hydroxyethyl)-1-piperazineethanesulfonic acid (HEPES),” for “HEPES,”, “MgCh,” for “MgCl₂,”, “bacitracin (Research Products),” for “bacitracin,”, “Polyoxyethylenesorbitan monolaurate (TWEEN®-20),” for “TWEEN®-20,”, “after” for “after 2.5 to”
T2 sequence (P47871 26-477): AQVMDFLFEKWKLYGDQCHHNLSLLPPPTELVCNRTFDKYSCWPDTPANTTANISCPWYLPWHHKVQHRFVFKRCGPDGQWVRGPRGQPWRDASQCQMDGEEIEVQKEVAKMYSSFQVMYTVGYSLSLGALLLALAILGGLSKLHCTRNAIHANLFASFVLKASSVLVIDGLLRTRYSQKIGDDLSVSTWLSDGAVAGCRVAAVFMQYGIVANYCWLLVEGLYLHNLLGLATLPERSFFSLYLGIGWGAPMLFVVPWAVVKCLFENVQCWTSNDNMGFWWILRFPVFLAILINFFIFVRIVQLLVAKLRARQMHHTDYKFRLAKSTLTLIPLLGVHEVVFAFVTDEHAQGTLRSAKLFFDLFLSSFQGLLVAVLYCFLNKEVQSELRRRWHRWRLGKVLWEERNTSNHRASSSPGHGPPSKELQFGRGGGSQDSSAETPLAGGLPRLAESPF
Data are analyzed using four-parameter (curve maximum, curve minimum, IC₅₀, Hill slope) nonlinear regression routines (Genedata Screener, version 12.0.4, Genedata AG, Basal, Switzerland). […] Values for Kᵢ are reported as the geometric mean, with error expressed as the standard error of the mean (SEM) and n is equal to the number of independent replicates (determined in assays performed on different days).

human GLP-1 receptor = biological target: T3, human GLP-1 receptor (human, UniProt P43220 24-463); experiment: SPA competition vs [125I]-GLP-1, hGLP-1R membranes
T3 construct: whole, on cells; also called hGLP-1R; human glucagon-like peptide-1 receptor
Method: The binding buffer contains 25 mM HEPES, pH 7.4, 2.5 mM CaCl₂, 1 mM MgCl₂, 0.1% (w/v) bacitracin, 0.003% (w/v) TWEEN®-20, and Roche Complete™ Protease Inhibitors without EDTA.
as §2

B1: Y-Aib-EGT-αMeF(2F)-TSD-4Pal-SI-αMeL-LD-Orn-K((2-[2-(2-Amino-ethoxy)-ethoxy]-acetyl)2-CO-(CH2)12-CO2H)AQ-Aib-EFI-(D-Glu)-αMeY-LIK((2-[2-(2-Amino-ethoxy)-ethoxy]- … (peptide)
peptide: YXEGTXTSDXSIXLDXKAQXEFIXXLIKGGPSSGAPPPS
modifications: Aib2, αMeF(2F)6, 4Pal10, αMeL13, Orn16, Aib20, D-Glu24, αMeY25; acylated K17, K28 (groups as in name); C-terminal amide
With B1 the “cAMP EC50 (1.0% HSA)” value (human glucagon receptor [1]) was greater than 9950 nM.

B2: Y-Aib-EGT-αMeF(2F)-TSD-4Pal-SI-αMeL-LD-Orn-K((2-[2-(2-Amino-ethoxy)-ethoxy]-acetyl)3-(γ-Glu)-CO-(CH2)14-CH3)AQ-Aib-EFI-(D-Glu)-αMeY-LIEGGK((2-[2-(2-Amino-ethoxy … (peptide)
peptide: B1 peptide with K28E, P31K
modifications: Aib2, αMeF(2F)6, 4Pal10, αMeL13, Orn16, K17(Z1), Aib20, D-Glu24, αMeY25, K31(Z1), C-term NH2; Z1=AEEA3-(γ-Glu)-CO-(CH2)14-CH3
B2 gave a Ki (human GIP receptor) of 0.0308 nM and a Ki (human glucagon receptor [2]) of 0.62 nM.

B3: Y-Aib-EGT-αMeF(2F)-TSD-4Pal-SI-αMeL-LD-Orn-K((2-[2-(2-Amino-ethoxy)-ethoxy]-acetyl)2-(εK)-CO-(CH2)12-CO2H)AQ-Aib-EFI-(D-Glu)-αMeY-LIEGGK((2-[2-(2-Amino-ethoxy)- … (peptide)
peptide: B1 peptide with K28E, P31K
modifications: Aib2, αMeF(2F)6, 4Pal10, αMeL13, Orn16, K17(Z1), Aib20, D-Glu24, αMeY25, K31(Z1), C-term NH2; Z1=AEEA2-(εK)-CO-(CH2)12-CO2H
Binder B3 has a Ki (human GIP receptor) of 0.117 nM, a Ki (human glucagon receptor [2]) of 264 nM and a Ki (human GLP-1 receptor) of 1.34 nM.

B4: Y-Aib-EGT-αMeF(2F)-TSD-4Pal-SI-αMeL-LD-Orn-K((2-[2-(2-Amino-ethoxy)-ethoxy]-acetyl)-(εK)-(γ-Glu)-CO-(CH2)12-CO2H)AQ-Aib-EFI-(D-Glu)-αMeY-LIEGGK((2-[2-(2-Amino-e … (peptide)
peptide: B1 peptide with K28E, P31K
modifications: Aib2, αMeF(2F)6, 4Pal10, αMeL13, Orn16, K17(Z1), Aib20, D-Glu24, αMeY25, K31(Z1), C-term NH2; Z1=AEEA-(εK)-(γ-Glu)-CO-(CH2)12-CO2H
B4 gave a Ki (human GIP receptor) of 0.077 nM, a Ki (human glucagon receptor [2]) of 868 nM and a Ki (human GLP-1 receptor) of 1.38 nM.

B5: Y-Aib-EGT-αMeF(2F)-TSD-4Pal-SI-αMeL-LD-Orn-K((εK)-(2-[2-(2-Amino-ethoxy)-ethoxy]-acetyl)-(γ-Glu)-CO-(CH2)12-CO2H)AQ-Aib-EFI-(D-Glu)-αMeY-LIEGGK((εK)-(2-[2-(2-Am … (peptide)
peptide: B1 peptide with K28E, P31K
modifications: Aib2, αMeF(2F)6, 4Pal10, αMeL13, Orn16, K17(Z1), Aib20, D-Glu24, αMeY25, K31(Z1), C-term NH2; Z1=(εK)-AEEA-(γ-Glu)-CO-(CH2)12-CO2H
B5 gave a Ki (human GIP receptor) of 0.103 nM, a Ki (human glucagon receptor [2]) of 611 nM and a Ki (human GLP-1 receptor) of 1.47 nM.

B6: Y-Aib-EGT-αMeF(2F)-TSD-4Pal-SI-αMeL-LD-Orn-K((εK)-(γ-Glu)-CO-(CH2)12-CO2H)AQ-Aib-EFI-(D-Glu)-αMeY-LIEGGK((εK)-(γ-Glu)-CO-(CH2)12-CO2H)SSGAPPPS-NH2 (peptide)
peptide: B1 peptide with K28E, P31K
modifications: Aib2, αMeF(2F)6, 4Pal10, αMeL13, Orn16, K17(Z1), Aib20, D-Glu24, αMeY25, K31(Z1), C-term NH2; Z1=(εK)-(γ-Glu)-CO-(CH2)12-CO2H
In the case of B6, the Ki (human GIP receptor) is reported as 0.0608 nM, the Ki (human glucagon receptor [2]) is reported as 174 nM and the Ki (human GLP-1 receptor) is reported as 0.803 nM.

B7: Y-Aib-EGT-αMeF(2F)-TSD-4Pal-SI-αMeL-LD-Orn-K((εK)-(γ-Glu)-(γ-Glu)-CO-(CH2)12-CO2H)AQ-Aib-EFI-(D-Glu)-αMeY-LIEGGK((εK)-(γ-Glu)-(γ-Glu)-CO-(CH2)12-CO2H)SSGAPPPS-N … (peptide)
peptide: B1 peptide with K28E, P31K
modifications: Aib2, αMeF(2F)6, 4Pal10, αMeL13, Orn16, K17(Z1), Aib20, D-Glu24, αMeY25, K31(Z1), C-term NH2; Z1=(εK)-(γ-Glu)-(γ-Glu)-CO-(CH2)12-CO2H
Work on B7 yielded a Ki (human GIP receptor) of 0.234 nM, a Ki (human glucagon receptor [2]) of 412 nM and a Ki (human GLP-1 receptor) of 1.69 nM.

B8: Y-Aib-EGT-αMeF(2F)-TSD-4Pal-SI-αMeL-LD-Orn-K((εK)-(εK)-(γ-Glu)-CO-(CH2)12-CO2H)AQ-Aib-EFI-(D-Glu)-αMeY-LIEGGK((εK)-(εK)-(γ-Glu)-CO-(CH2)12-CO2H)SSGAPPPS-NH2 (peptide)
peptide: B1 peptide with K28E, P31K
modifications: Aib2, αMeF(2F)6, 4Pal10, αMeL13, Orn16, K17(Z1), Aib20, D-Glu24, αMeY25, K31(Z1), C-term NH2; Z1=(εK)-(εK)-(γ-Glu)-CO-(CH2)12-CO2H
With B8 the Ki (human GIP receptor) was 0.163 nM, the Ki (human glucagon receptor [2]) was 223 nM and the Ki (human GLP-1 receptor) was 1.6 nM.

B9: Y-Aib-EGT-αMeF(2F)-TSD-4Pal-SI-αMeL-LD-Orn-IAQ-Aib-EFI-(D-Glu)-αMeY-LIK((2-[2-(2-Amino-ethoxy)-ethoxy]-acetyl)2-(γ-Glu)-CO-(CH2)12-CO2H)GGK((2-[2-(2-Amino-ethox … (peptide)
peptide: B1 peptide with K17I, P31K
modifications: Aib2, αMeF(2F)6, 4Pal10, αMeL13, Orn16, Aib20, D-Glu24, αMeY25, K28(Z1), K31(Z1), C-term NH2; Z1=AEEA2-(γ-Glu)-CO-(CH2)12-CO2H
Work on B9 yielded a Ki (human GIP receptor) of 0.0722 nM, a Ki (human glucagon receptor [2]) of 139 nM and a Ki (human GLP-1 receptor) of 1.96 nM.

B10: Y-Aib-EGT-αMeF(2F)-TSD-4Pal-SI-αMeL-LD-Orn-K((2-[2-(2-Amino-ethoxy)-ethoxy]-acetyl)2-(γ-Glu)-(4-(4-tert-butylphenyl)butanoyl))AQ-Aib-EFI-(D-Glu)-αMeY-LIEGGK((2- … (peptide)
peptide: B1 peptide with K28E, P31K
modifications: Aib2, αMeF(2F)6, 4Pal10, αMeL13, Orn16, K17(Z1), Aib20, D-Glu24, αMeY25, K31(Z1), C-term NH2; Z1=AEEA2-(γ-Glu)-(4-(4-tert-butylphenyl)butanoyl)
In the case of B10, the Ki (human glucagon receptor [2]) is reported as 637 nM.

B11: Y-Aib-EGT-αMeF(2F)-TSD-4Pal-SI-αMeL-LD-Orn-K((2-[2-(2-Amino-ethoxy)-ethoxy]-acetyl)2-CO-(CH2)12-CO2H)AQ-Aib-EFI-(D-Glu)-αMeY-LIEGGK((2-[2-(2-Amino-ethoxy)-ethox … (peptide)
peptide: B1 peptide with K28E, P31K
modifications: Aib2, αMeF(2F)6, 4Pal10, αMeL13, Orn16, K17(Z1), Aib20, D-Glu24, αMeY25, K31(Z1), C-term NH2; Z1=AEEA2-CO-(CH2)12-CO2H
B11 showed a Ki (human GIP receptor) of 0.0557 nM and a Ki (human glucagon receptor [2]) of 209 nM.
